# Test results: publication PMC6135609, “Poly(ADP-ribose) polymerase 1 searches DNA via a ‘monkey bar’ mechanism”
# B1: p18mer* (labeled DSB model) (dsDNA)
# DNA 1: GGGTTGCGGCCGCTTGGG
# DNA 2: CCCAAGCGGCCGCAACCC
# modifications: 5'-phosphate
# How the values were obtained:
# Conditions in all cases: protein: recombinant; (Ni-NTA; pET28a); blunt
# PARP1 dZn2 = PARP1 dZn2 (human, UniProt P09874 1-96+=ALAGSGSGSGSGSGLALLLAGSGSGSGSGAAL+207-1014, internal_change); assay: stopped-flow fluorescence anisotropy; k1 similar to WT; Scheme 3 dissociation; 50 mM Tris-HCl pH 7.5, 50 mM NaCl, 1 mM MgCl2, 0.1 mM EDTA, 0.01% IGEPAL, 20 C
# Chain of PARP1 dZn2 (P09874 other isoform, or with tags, fused parts or gaps): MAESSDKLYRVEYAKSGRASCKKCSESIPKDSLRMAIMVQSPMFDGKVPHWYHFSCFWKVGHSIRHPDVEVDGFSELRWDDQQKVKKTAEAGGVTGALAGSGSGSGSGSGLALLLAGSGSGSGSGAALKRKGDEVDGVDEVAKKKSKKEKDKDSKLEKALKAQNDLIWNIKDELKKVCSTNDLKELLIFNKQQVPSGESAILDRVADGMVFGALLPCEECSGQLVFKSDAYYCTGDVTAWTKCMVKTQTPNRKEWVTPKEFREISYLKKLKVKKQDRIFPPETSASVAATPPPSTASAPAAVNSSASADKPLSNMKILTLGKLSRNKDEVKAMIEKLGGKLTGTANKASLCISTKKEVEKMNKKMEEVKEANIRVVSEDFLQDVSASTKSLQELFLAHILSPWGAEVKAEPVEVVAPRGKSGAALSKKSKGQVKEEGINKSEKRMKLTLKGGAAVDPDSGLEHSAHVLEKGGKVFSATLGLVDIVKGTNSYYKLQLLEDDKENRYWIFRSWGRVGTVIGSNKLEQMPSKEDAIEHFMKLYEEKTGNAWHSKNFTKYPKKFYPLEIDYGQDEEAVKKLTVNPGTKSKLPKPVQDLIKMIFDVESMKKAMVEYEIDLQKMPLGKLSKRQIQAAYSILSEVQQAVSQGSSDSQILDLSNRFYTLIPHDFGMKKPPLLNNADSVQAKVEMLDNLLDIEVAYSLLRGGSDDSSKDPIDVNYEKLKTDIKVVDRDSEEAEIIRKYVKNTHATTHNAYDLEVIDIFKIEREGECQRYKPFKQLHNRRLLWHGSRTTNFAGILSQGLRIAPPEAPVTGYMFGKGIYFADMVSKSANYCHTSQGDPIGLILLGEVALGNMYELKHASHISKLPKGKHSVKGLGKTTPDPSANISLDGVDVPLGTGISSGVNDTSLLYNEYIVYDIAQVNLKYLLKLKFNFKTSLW
# PARP1 dZn1 = PARP1 dZn1 (human, UniProt P09874 97-1014, del2-96); assay: as above
# Chain of PARP1 dZn1 (P09874 97-1014, stated change not applied): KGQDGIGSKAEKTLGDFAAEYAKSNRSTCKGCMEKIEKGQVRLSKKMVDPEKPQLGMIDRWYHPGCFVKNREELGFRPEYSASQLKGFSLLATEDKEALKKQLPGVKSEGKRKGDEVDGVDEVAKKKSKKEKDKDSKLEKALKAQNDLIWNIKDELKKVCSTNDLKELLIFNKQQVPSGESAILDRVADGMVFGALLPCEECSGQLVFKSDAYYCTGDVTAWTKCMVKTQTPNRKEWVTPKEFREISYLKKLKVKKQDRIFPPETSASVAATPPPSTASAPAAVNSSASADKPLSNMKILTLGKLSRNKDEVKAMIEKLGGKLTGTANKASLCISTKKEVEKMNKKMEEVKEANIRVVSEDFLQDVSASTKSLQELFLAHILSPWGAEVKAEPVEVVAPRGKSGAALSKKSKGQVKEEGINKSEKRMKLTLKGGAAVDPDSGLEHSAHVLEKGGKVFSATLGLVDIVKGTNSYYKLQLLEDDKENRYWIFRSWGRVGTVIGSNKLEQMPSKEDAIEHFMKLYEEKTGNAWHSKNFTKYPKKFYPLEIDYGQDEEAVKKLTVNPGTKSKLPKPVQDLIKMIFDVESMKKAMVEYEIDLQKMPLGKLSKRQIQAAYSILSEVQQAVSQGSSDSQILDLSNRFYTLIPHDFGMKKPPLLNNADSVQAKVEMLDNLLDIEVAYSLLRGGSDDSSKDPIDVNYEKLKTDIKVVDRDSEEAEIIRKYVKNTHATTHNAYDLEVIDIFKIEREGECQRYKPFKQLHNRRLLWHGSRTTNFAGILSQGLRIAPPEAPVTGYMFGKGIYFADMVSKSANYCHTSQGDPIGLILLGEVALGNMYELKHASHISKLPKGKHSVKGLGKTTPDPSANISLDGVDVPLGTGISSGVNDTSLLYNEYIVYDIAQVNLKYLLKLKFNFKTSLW
# PARP1 dZn3 = PARP1 dZn3 (human, UniProt P09874 1-215+=ALAGSGSGSGSGSGLALLLAGSGSGSGSGAAL+367-1014, internal_change); assay: as above
# Chain of PARP1 dZn3 (P09874 other isoform, or with tags, fused parts or gaps): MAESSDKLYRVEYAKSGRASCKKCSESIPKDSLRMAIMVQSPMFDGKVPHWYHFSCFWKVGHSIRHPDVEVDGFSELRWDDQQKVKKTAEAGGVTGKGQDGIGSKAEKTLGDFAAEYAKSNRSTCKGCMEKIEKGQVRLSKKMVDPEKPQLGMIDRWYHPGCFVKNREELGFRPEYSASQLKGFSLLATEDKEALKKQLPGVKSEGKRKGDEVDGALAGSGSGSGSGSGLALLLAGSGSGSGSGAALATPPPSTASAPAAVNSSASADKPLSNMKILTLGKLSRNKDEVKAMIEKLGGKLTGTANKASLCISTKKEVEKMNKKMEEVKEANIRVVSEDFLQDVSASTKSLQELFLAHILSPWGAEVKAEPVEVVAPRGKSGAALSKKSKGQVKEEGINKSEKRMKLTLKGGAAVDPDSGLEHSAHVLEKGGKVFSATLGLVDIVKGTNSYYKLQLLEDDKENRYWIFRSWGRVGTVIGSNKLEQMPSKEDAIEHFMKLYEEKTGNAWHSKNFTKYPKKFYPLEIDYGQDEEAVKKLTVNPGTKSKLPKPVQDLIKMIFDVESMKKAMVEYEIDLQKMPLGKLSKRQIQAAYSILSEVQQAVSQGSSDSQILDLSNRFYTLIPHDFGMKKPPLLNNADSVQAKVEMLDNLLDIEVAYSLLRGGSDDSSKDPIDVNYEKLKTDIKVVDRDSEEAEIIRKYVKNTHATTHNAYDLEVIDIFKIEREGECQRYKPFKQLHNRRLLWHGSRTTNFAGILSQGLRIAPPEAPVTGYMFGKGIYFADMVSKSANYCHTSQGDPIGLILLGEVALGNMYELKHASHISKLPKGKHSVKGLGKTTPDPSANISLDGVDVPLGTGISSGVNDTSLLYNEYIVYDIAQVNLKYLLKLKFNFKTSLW
# PARP1 WT = PARP1 WT (human, UniProt P09874 1-1014); assay: stopped-flow fluorescence anisotropy; kinetic Kd; k1 3.1 nM-1 s-1, k-1 <10 s-1; 50 mM Tris-HCl pH 7.5, 50 mM NaCl, 1 mM MgCl2, 0.1 mM EDTA, 0.01% IGEPAL, 20 C
# Chain of PARP1 WT (P09874 whole entry): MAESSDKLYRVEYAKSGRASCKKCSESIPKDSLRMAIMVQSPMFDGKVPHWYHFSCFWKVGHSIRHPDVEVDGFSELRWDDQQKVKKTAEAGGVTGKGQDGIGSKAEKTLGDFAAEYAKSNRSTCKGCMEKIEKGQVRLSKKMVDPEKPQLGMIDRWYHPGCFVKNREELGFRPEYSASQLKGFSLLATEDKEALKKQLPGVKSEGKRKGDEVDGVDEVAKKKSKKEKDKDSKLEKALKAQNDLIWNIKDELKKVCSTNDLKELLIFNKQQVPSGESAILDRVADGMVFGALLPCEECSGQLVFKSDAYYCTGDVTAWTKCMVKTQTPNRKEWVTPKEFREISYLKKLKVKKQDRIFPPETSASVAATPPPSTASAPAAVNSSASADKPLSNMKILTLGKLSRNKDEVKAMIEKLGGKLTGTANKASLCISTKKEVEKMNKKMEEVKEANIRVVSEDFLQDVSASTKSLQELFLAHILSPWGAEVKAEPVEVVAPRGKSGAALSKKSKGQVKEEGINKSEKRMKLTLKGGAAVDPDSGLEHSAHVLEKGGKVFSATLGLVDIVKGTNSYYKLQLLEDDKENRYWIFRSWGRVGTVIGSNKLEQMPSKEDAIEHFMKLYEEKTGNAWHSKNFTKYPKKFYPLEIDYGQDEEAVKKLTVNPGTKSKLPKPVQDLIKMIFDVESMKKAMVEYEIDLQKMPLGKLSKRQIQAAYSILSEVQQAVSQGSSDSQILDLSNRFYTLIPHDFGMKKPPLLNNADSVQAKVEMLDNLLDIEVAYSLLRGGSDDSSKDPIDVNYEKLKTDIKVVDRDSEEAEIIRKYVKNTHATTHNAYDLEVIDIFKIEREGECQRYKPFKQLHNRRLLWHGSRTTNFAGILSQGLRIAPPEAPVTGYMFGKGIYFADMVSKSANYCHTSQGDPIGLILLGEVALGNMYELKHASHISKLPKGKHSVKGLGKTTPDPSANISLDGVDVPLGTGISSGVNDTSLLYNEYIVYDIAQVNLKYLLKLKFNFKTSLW
# PARP1 dWGR = PARP1 dWGR (human, UniProt P09874 1-517+=ALAGSGSGSGSGSGLALLLAGSGSGSGSGAAL+655-1014, internal_change); assay: stopped-flow fluorescence anisotropy; k1 similar to WT; Scheme 2 dissociation, no ternary complex; 50 mM Tris-HCl pH 7.5, 50 mM NaCl, 1 mM MgCl2, 0.1 mM EDTA, 0.01% IGEPAL, 20 C
# Chain of PARP1 dWGR (P09874 other isoform, or with tags, fused parts or gaps): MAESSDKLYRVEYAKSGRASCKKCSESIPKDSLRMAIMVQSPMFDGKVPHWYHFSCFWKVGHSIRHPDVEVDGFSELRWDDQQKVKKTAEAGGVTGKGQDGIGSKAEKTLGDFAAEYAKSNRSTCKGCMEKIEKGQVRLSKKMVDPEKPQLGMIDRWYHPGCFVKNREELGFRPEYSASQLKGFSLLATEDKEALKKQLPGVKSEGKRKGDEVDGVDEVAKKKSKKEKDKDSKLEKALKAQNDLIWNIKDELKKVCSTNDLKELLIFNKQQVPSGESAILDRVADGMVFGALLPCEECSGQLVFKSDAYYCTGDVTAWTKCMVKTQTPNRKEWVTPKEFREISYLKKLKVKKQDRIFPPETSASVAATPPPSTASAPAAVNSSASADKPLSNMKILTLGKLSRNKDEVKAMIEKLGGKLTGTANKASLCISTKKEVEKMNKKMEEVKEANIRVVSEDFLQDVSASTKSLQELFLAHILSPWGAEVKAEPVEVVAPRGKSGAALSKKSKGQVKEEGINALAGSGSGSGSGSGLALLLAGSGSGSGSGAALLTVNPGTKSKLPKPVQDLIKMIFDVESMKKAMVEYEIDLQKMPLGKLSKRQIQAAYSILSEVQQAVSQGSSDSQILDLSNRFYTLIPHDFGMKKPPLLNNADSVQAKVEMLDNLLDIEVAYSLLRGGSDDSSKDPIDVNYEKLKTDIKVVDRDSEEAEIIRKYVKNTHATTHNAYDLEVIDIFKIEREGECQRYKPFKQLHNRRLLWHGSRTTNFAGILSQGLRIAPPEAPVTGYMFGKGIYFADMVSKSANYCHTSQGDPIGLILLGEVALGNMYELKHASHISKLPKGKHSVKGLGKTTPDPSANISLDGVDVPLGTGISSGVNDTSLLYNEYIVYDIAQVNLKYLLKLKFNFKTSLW
binder,measurement,setting,value
B1,binding result,PARP1 dZn2,binds
same,binding result,PARP1 dZn1,binds
same,binding result,PARP1 dZn3,binds
same,Kd,PARP1 WT,< 3 nM
same,binding result,PARP1 dWGR,binds
